The DeepSol protein solubility set

assay: soluble on expression in E. coli; label from the status in PepcDB or PDB records

Sequence | soluble on expression in E. coli
MTGAATAAENSATQLEFYRKALNFNVIGRYDPKIKQLLFHTPHASLYKWDFKKDEWNKLEYQGVLAIYLRDVSQNTNLLPVSPQEVDIFDSQNGSNNIQVNNGSDNSNRNSSGNGNSYKSNDSLTYNCGKTLSGKDIYNYGLIILNRINPDNFSMGIVPNSVVNKRKVFNAEEDTLNPLECMGVEVKDELVIIKNLKHEVYGIWIHTVSDRQNIYELIKYLLENEPKDSFA | soluble
MSLNTVYHSYQSLPNEGWGKSDTLSFQCPVTDSIPGTLRLFAEVRNRSEYPYRNLYLFIHENLLDSTVWRTDTIAVNLADSTGRWTGNGWGSIYQTAVFVKSVRPLHPGNYTVKIVHGMQDEKLTGLNDVGIRIEKQGEGHHHHHH | soluble
MARHFGMALAPWDVMGGGRFQSKKAMEERRKNGECIRSFVGASEQTDAEIKISEALAKVAEEHGTESVTAIAIAYVRSKAKNVFPSVEGGKIEDLKENIKALSIDLTPDNIKYLENVVPFDIGFPNTFIVLNSLTQKYGTNNV | soluble
MEYRSLTLDDFLSRFQLLRPQINRETLNHRQAAVLIPIVRRPQPGLLLTQRSIHLRKHAGQVAFPGGAVDDTDASAIAAALREAEEEVAIPPSAVEVIGVLPPVDSVTGYQVTPVVGIIPPDLPYRASEDEVSAVFEMPLAQALHLGRYHPLDIYRRGDSHRVWLSWYEQYFVWGMTAGIIRELALQIGVKPMGHHHHHHSH | not soluble
MRLNKRLPAALSGLLLSAALLAGCSTSGTAETTTTTVSSAAASTTTSTSSASSSSSSSSSSSSSDSSTTAETISNTAEAAQAFLSTLSTEEQDAVLYDYDAEEKSTGWSNFPVTFVQRSGVNLTDLTEEQQAAALNVLKNLLNDDAYQMIEDIMASDQYLNDESNTTEDSLGQYYIAFFGDPSSDSDWSIQFGGHHIGINTTFSDGAITFAPTHLGTQPSEWTNEDGETVAALSNMYETAFAFYDSLAEEQQAQLYQGEELDSMVCAPGSTCDYPTGTGLKGSDLTDEQKELLIDVIANWVGLADEETTETELDAIRETLDDTYINWSGATEYDTSTGDGIYFQISGPKVYIEFANQQGSAGADIDGVITAGWGHIHTIYRDPTNDYANSVTQEAASGMMGGGPGGNGGEMPSGDMPTGEMPSGAPSNLEHHHHHH | not soluble
SLNVLCNNPHTADCNNDAQVDRYFREGTTCLMSPACTSEGYASQHECQQACFVGGEDHSSEMHSSCLGDPPTSCAEGTDITYYDSDSKTCKVLAASCPSGENTFESEVECQVACGAPIEG | soluble
MGSDKIHHHHHHMIPPASTLRSRLKMQHLRLLLSIEERGSLRQAADALSLSQPAVTKMLQDMEALLGVTLFERHLRGLRPTRFGMAVTRYANLVFSDLANLHDELVSLETGRIGKVRIGAVMAPTPVLMAEVIRRLKRDHPGLNMTVHVDTSDMLVPMLERDQLDLVLGRVPEGWDASHLTFEQLGDERLAVVVGCDHPLAKRTDPTFGELATYPWILQPRPSPMRALIDRSFEEAGVTAPQSTIETAAILMTTSLLTGSDLVAVVPMAVATFHASMGLLHILPVPLPRKLDPYGIVTRLGRPPSASMTLFVDVLRAVVEEGGQ | not soluble
MQREDDPDAYDVIWASNGTLYFTPGFKYNTPPYPANQRVLATTDNIALTNYLRQEYNKLKESEGTPTLNDIINGFGFCYNDSSNGAGLDGTYLTVSGMLDNKYRLQLLGQYNGSNWLAYRTRNGDEQSWNPWHKVLTDNINAAISARHQYTSSSYPQIYGNGILQLGGDSRNEYGVVLRSNGTDEANAFRPSVNAGTTGHLYLGVANQKWRAVFAQNGTIQTSDRNAKHDITDLDPEKITAFIMGLKPSSYVFNDADSGRTHWGLISQDIEELFPQLGMTSMDFAGFIKSPKTEDYYEDVPETVTDEETGEEKTVTRKELKTRTVEGEYIYSLRYDEFIAPLICMVQRQQRQIEYLERRLSASESKEEAKLEHHHHHH | soluble
MFAIQPGLAEGGQFLGDPPPGLCQPELQPDSNSNFMASAKDANENWHGMPGRVEPILRRSSSESPSDNQAFQAPGSPEEGVRSPPEGAEIPGAEPEKMGGAGTVCSPLEDNGYASSSLSIDSRSSSPEPACGTPRGPGPPDPLLPSVAQAVQHLQVQERYKEQEKEKHHVHLVMYRRLALLQWIRGLQHQLIDQQARLQESFDTILDNRKELIRCLQQRAAPSRPQDQA | soluble
MGHHHHHHSHRRERACPERALDLENIMRKFSGSCRCCAKQIKFYRMRHHYKSCKKYQDEYGVSSIIPNFQISQDSVGNSNRSETSTSDNTETYQENTSSSGHPTFKCPLCQESNFTRQRLLDHCNSNHLFQIVPVTCPICVSLPWGDPSQITRNFVSHLNQRHQFDYGEFVNLQLDEETQYQTAVEESFQVNI | not soluble
MSLIHAFIKKGCFQDSVSLMIISRKLSESENVDDVSVMMGTPANKALLDTTGFWHDDFNNATPNDICVAIRSEAADAGIAQAIMQQLEEALKQLAQGSGSSQALTQVRRWDSACQKLPDANLALISVAGEYAAELANQALDRNLNVMMFSDNVTLEDEIQLKTRAREKGLLVMGPDCGTSMIAGTPLAFANVMPEGNIGVIGASGTGIQELCSQIALAGEGITHAIGLGGRDLSREVGGISALTALEMLSADEKSEVLAFVSKPPAEAVRLKIVNAMKATGKPTVALFLGYTPAVARDENVWFASSLDEAARLACLLSRVTARRNAIAPVSSGFICGLYTGGTLAAEAAGLLAGHLGVEADDTHQHGMMLDADSHQIIDLGDDFYTVGRPHPMIDPTLRNQLIADLGAKPQVRVLLLDVVIGFGATADPAASLVSAWQKACAARLDNQPLYAIATVTGTERDPQCRSQQIATLEDAGIAVVSSLPEATLLAAALIHPLSPAAQQHTPSLLENVAVINIGLRSFALELQSASKPVVHYQWSPVAGGNKKLARLLERLQEGHHHHHH | soluble
GPGSMSLKVNILGHEFSNPFMNAAGVLCTTEEDLRRMTESESGSLIGKSCTLAPRTGNPEPRYFGLPLGSINSMGLPNLGVDFYLSYAAQTHDYSRKPLFLSMSGLSVEESVEMVKKLAPITKEKGTILELNLSCPNVPGKPQVGYDFDTTRTYLQKVSEAYGLPFGVKMPPYFDIAHFDMAAAVLNDFPLVKFITCVNSIGNGLVIDPANETVVIKPKQGFGGLGGKYVLPTALANVNAFFRRCPDKLVFGCGGVYSGEEAFLHILAGASMVQVGTALHDEGPIIFARLNKELQEIMTNKGYKTLDEFRGRVKTMD | soluble
MSAAPLVGYSSSGSEDESEDGMRTRPGDGSHRRGQSPLPRQRFPVPDSVLNMFPGTEEGPEDDSTKHGGRVRTFPHERGNWATHVYVPYEAKEEFLDLLDVLLPHAQTYVPRLVRMKVFHLSLSQSVVLRHHWILPFVQALKARMTSFHRFFFTANQVKIYTNQEKTRTFIGLEVTSGHAQFLDLVSEVDRVMEEFNLTTFYQDPSFHLSLAWCVGDARLQLEGQCLQELQAIVDGFEDAEVLLRVHTEQVRCKSGNKFFSMPLK | soluble
MGSDKIHHHHHHMAKKVAVLAVNPVNGCGLFQYLEAFFENGISYKVFAVSDTKEIKTNSGMVLIVDDVIANLKGHEDEFDALVFSCGDAVPVFQQYANQPYNVDLMEVIKTFGEKGKMMIGHCAGAMMFDFTGITKGKKVAVHPLAKPAIQNGIATDEKSEIDGNFFTAQDENTIWTMLPKVIEALK | not soluble
MNTLFMHCRPGFEGEVCSEIADLAARLDVSGYAKARPDTACAEFICTEADGAERLMNGQRFDTLIFPRQWARGLFLDLPETDRISVILAQLSTFPTCGSLWLEVVDTNDGKELSNFCKKFEAPLRKALTQAGKLVDDPRKPRLLLTFKSGREVFLGLAEADNSAMWPMGIPRLKFPREAPSRSTLKLEEAWHHFIPRDQWDERLSGDMTGVDLGAAPGGWTYQLVRRGMLVTAIDNGPMAESLMDTGLVQHLMADGFTYKPRHPVDWMVCDIVEKPARNAALLETWLGEGLCREAVVNLKLPMKQRYAEVRRLLDRIEEGFQARGVRVSIGCKQLYHDREEVTCHLRRLDVAKAARK | not soluble
MPGTKRFQHVIETPEPGKWELSGYEAAVPITEKSNPLTQDLDKADAENIVRLLGQCDAEIFQEEGQALSTYQRLYSESILTTMVQVAGKVQEVLKEPDGGLVVLSGGGTSGRMAFLMSVSFNQLMKGLGQKPLYTYLIAGGDRSVVASREGTEDSALHGIEELKKVAAGKKRVIVIGISVGLSAPFVAGQMDCCMNNTAVFLPVLVGFNPVSMARNDPIEDWSSTFRQVAERMQKMQEKQKAFVLNPAIGPEGLSGSSRMKGGSATKILLETLLLAAHKTVDQGIAASQRCLLEILRTFERAHQVTYSQSPKIATLMKSVSTSLEKKGHVYLVGWQTLGIIAIMDGVECIHTFGADFRDVRGFLIGDHSDMFNQKAELTNQGPQFTFSQEDFLTSILPSLTEIDTVVFIFTLDDNLTEVQTIVEQVKEKTNHIQALAHSTVGQTLPIPLKKLFPSIISITWPLLFFEYEGNFIQKFQRELSTKWVLNTVSTGAHVLLGKILQNHMLDLRISNSKLFWRALAMLQRFSGQSKARCIESLLRAIHFPQPLSDDIRAAPISCHVQVAHEKEQVIPIALLSLLFRCSITEAQAHLAAAPSVCEAVRSALAGPGQKRTADPLEILEPDVQ | soluble
MPEDILVDIKRDYVLSKLRDNERIDGRGFDEFRKVEIIPNVIEKAEGSALVKLGDTQVVVGVKMQPGEPYPDTPDRGVIIVNAELVPLASPTFEPGPPDENSIELARVVDRGIRESEAVDLSKLVIEEGEKVWIVFVDIHALDDDGNLLDASALAAIAALMNTKVPAERFDLGEDYLLPVRDLPVSVTSLIVGNKYLVDPSREEMSVGDTTLTITTDKDDNVVAMQKSGGYLLDEKLFDELLDVSINCARKLREKFKEI | soluble
MDFISSLIVGCAQVLCESMNMAERRGHKTDLRQAITDLETAIGDLKAIRDDLTLRIQQDGLEGRSCSNRAREWLSAVQVTETKTALLLVRFRRREQRTRMRRRYLSCFGCADYKLCKKVSAILKSIGELRERSEAIKTDGGSIQVTCREIPIKSVVGNTTMMEQVLEFLSEEEERGIIGVYGPGGVGKTTLMQSINNELITKGHQYDVLIWVQMSREFGECTIQQAVGARLGLSWDEKETGENRALKIYRALRQKRFLLLLDDVWEEIDLEKTGVPRPDRENKCKVMFTTRSIALCNNMGAEYKLRVEFLEKKHAWELFCSKVWRKDLLESSSIRRLAEIIVSKCGGLPLALITLGGAMAHRETEEEWIHASEVLTRFPAEMKGMNYVFALLKFSYDNLESDLLRSCFLYCALFPEEHSIEIEQLVEYWVGEGFLTSSHGVNTIYKGYFLIGDLKAACLLETGDEKTQVKMHNVVRSFALWMASEQGTYKELILVEPSMGHTEAPKAENWRQALVISLLDNRIQTLPEKLICPKLTTLMLQQNSSLKKIPTGFFMHMPVLRVLDLSFTSITEIPLSIKYLVELYHLSMSGTKISVLPQELGNLRKLKHLDLQRTQFLQTIPRDAICWLSKLEVLNLYYSYAGWELQSFGEDEAEELGFADLEYLENLTTLGITVLSLETLKTLFEFGALHKHIQHLHVEECNELLYFNLPSLTNHGRNLRRLSIKSCHDLEYLVTPADFENDWLPSLEVLTLHSLHNLTRVWGNSVSQDCLRNIRCINISHCNKLKNVSWVQKLPKLEVIELFDCREIEELISEHESPSVEDPTLFPSLKTLRTRDLPELNSILPSRFSFQKVETLVITNCPRVKKLPFQERRTQMNLPTVYCEEKWWKALEKDQPNEELCYLPRFVPN | not soluble
MGHHHHHHSHMSIPSSQYGFVFNKQSGLKLRNDLPVHKPKAGQLLLKVDAVGLCHSDLHVIYEGLDCGDNYVMGHEIAGTVAAVGDDVINYKVGDRVACVGPNGCGGCKYCRGAIDNVCKNAFGDWFGLGYDGGYQQYLLVTRPRNLSRIPDNVSADVAAASTDAVLTPYHAIKMAQVSPTSNILLIGAGGLGGNAIQVAKAFGAKVTVLDKKKEARDQAKKLGADAVYETLPESISPGSFSACFDFVSVQATFDVCQKYVEPKGVIMPVGLGAPNLSFNLGDLALREIRILGSFWGTTNDLDDVLKLVSEGKVKPVVRSAKLKELPEYIEKLRNNAYEGRVVFNP | soluble
